The values below come from patent US20170030918A1 (MOR NUCO ENTERPRISES, published 2017).

The target in assay [1] is T1, serum albumin (human, UniProt P02768 25-609).
T1 construct: Protein from patient sera on a denaturing 2-D blot; also called Ab
The assay is described as follows: 2-D gel electrophoresis / western blot of patient sera. The method, then:
(§1) Serum was prepared from 5 ml of blood collected by venipuncture (with tourniquet) in standard B & D 13×100 (7 ml) vacutainer clot tubes (or equivalent) with or without hemoguard closure. After approximately 30 min at room temperature to allow for clotting, the clot was pelleted by centrifugation for 5 to 10 min at 2,500 to 3,000 rpm. Clot-free serum was decanted into a clean tube, labeled and analyzed fresh or stored frozen.
(§2) For western blot analysis, 30 μl of sera was added to 120 μl of Rehydration Buffer (7 M urea, 2 M thiourea, 2% (w/v) CHAPS [(3-[(3-cholamidopropyl)dimethylammonio]-1-propane-sulfonate), a nondenaturing zwitterionic detergent], 0.5% (w/v) ASB-14 (amidosulfobetaine-14, a zwitterionic detergent), 0.5% (v/v) ampholytes pH 3-10 (Bio-Rad), 0.5% (v/v) immobilized pH gradient (IPG) buffer pH 3-10 (Amersham-Pharmacia Biotech) and 65 mM dithiothreitol). The samples were quickly vortexed to mix sera with Rehydration Buffer. Four to six mg of protein were loaded for analysis. The samples were electrophoresed in the first dimension by using a commercial flatbed electrophoresis system (Ettan IPGphor 3, Amersham-Pharmacia Biotech) with IPG dry strips (Amersham). A linear pH range of 3 to 10 on 7 cm IPG strips was used. The IPG strips were rehydrated with the samples overnight at room temperature. […]
(In western blotting, separated proteins are transferred to a membrane and probed.)

For assay [2], the target named is T2, serotransferrin (human, UniProt P02787 20-698).
T2 construct: Protein from patient sera on a denaturing 2-D blot; also called Serrotransferrin
T2 sequence (P02787 20-698 limits assumed): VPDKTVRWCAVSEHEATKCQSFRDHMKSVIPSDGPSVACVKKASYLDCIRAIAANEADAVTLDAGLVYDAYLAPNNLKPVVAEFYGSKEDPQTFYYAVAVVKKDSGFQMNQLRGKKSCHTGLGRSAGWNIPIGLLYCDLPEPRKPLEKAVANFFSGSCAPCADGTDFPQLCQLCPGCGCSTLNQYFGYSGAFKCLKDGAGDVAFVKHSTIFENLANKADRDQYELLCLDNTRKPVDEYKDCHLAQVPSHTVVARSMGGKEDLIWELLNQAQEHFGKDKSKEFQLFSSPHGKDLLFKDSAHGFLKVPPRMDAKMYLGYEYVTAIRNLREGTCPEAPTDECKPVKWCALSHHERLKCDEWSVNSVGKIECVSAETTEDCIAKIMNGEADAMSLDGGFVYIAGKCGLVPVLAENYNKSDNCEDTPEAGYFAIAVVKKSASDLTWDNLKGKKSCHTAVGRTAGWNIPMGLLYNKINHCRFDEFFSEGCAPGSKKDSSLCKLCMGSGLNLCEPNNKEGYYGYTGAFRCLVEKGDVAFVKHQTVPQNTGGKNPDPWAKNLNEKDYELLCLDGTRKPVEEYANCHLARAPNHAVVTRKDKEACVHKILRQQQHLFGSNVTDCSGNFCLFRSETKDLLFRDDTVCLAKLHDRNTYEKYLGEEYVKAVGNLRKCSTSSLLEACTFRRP
Put plainly: 2-D gel / western blot of patient sera. As to the method:
as §1, §2

T1 sequence (P02768 25-609 limits assumed): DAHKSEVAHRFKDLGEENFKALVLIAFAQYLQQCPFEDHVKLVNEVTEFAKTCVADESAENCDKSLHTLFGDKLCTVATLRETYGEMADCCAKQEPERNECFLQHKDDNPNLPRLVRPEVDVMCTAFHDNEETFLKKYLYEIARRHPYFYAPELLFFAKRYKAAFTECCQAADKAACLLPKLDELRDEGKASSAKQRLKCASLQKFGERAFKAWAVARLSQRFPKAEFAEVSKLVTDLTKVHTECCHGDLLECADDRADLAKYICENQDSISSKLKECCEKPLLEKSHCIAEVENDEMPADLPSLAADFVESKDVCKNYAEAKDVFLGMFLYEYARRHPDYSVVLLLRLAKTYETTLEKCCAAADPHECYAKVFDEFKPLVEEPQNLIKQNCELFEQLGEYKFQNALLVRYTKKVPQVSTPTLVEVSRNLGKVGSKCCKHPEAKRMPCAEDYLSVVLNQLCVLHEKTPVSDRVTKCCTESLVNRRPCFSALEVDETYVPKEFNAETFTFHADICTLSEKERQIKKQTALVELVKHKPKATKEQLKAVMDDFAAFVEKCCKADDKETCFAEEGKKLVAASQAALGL

B1: recombinant anti-ENOX2 single chain variable region antibody carrying an S-tag, ScFv(S) (scFv)
scFv: EVKLQESGTEVVKPGASVKLSCKASGYIFTSYDIDWVRQTPEQGLEWIGWIFPGEGSTEYNEKFKGRATLSVDKSSSTAYMELTRLTSEDSAVYFCARGDYYRRYFDLWGQGTTVTVSSGGGGSGGGGSGGGGSENVLTQSPAIMSASPGERVTMTCSASSSIRYIYWYQQKPGSSPRLLIYDTSNVAPGVPFRFSGSGSGTSYSLTINRMEAEDAATYYCQEWSGYPYTFGGGTKLELKAKETAAAKFERQHMDS
notes: Derived from the hybridoma that makes the ENOX2-specific monoclonal antibody; also called pan ENOX2 recombinant scFv antibody; recombinant anti-ECTO-NOX antibody (single chain variable region ScFv)
As to B1, the binding result in assay [1] is “no binding”; in assay [2] it was “binds”.
